Target: RsmA (Pseudomonas aeruginosa) (UniProt O69078)
Experiment: EMSA
Conditions: Filter binding: 10 mM Tris-HCl pH 7.5, 100 mM KCl, 10 mM MgCl2, 10 mM DTT, 10 ug/mL heparin, RNase inhibitor, 0.5 nM RNA, 37 C 30 min; Hill coefficient 2

RsmA (Pseudomonas aeruginosa), sequence (O69078 whole entry): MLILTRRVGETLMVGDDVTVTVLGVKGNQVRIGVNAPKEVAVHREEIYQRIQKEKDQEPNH

Substance rhlI leader has a Kd of 20.9 nM.

Reference: paper PMC11882435
